Laboratory results reported in PMC8985225.

Assays:
[1] = biological target: Ca^2+/CaM-dependent kinase II α (CaMKIIα) holoenzyme (rodent) (UniProt P11275)
[2] = biological target: Ca^2+/CaM-dependent kinase II β (CaMKIIβ) holoenzyme (rodent) (UniProt P08413)
Sequence of UniProt P08413 (P08413 whole entry): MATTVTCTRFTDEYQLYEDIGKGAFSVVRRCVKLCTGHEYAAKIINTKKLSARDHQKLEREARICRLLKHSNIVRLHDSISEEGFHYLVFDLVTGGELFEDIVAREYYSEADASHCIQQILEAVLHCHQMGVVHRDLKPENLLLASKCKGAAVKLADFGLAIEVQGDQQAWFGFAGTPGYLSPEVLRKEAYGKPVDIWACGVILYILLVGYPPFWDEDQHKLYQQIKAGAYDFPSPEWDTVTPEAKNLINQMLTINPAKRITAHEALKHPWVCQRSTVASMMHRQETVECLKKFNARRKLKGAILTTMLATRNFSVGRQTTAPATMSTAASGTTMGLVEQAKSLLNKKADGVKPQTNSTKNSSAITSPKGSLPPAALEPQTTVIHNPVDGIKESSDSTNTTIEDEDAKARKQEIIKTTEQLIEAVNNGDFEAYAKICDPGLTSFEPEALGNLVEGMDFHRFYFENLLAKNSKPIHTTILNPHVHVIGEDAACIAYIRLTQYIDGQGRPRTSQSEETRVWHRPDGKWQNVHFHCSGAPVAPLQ

Sequence of UniProt P11275 (P11275 whole entry): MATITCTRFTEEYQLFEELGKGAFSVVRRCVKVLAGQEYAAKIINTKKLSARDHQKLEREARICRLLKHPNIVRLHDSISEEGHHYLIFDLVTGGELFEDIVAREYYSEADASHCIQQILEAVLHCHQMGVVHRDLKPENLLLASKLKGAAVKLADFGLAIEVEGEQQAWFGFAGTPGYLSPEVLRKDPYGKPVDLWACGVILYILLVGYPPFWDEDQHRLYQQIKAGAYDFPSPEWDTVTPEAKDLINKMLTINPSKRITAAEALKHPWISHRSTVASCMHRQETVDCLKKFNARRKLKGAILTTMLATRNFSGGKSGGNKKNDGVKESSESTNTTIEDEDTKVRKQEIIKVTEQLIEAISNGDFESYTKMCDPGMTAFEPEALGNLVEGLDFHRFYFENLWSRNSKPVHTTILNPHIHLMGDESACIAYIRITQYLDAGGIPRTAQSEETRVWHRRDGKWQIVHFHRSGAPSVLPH

EC50 of CaM for in vitro CaMKII kinase activity (phosphorylation of syntide-2; 0.6 nM to 6 μM CaM) [1]: 30.1 nM
EC50 of CaM for in vitro CaMKII kinase activity (phosphorylation of syntide-2; 0.6 nM to 6 μM CaM) [2]: 14.6 nM
Substance: Calmodulin (from UniProt P0DP23 1-149) (natural protein)
